± gives the standard deviation.
Assay: protein stability index of a GFP-peptide fusion (GPS, HEK-293T) (PSI 1-6); higher = more stable
[1] = treatment: DMSO, c terminus: a fixed tail appended
[2] = treatment: MLN4924 1 uM, 8 h, c terminus: a fixed tail appended
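Further: 24-mer peptide tiles fused after GFP, lentivirally expressed, FACS-sorted into six equal bins by GFP/DsRed ratio, decoded by Illumina sequencing, PSI is the read-weighted mean bin number.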

Sequence TLASAGGPDNLVLLNPEKYKAKSR [ADD1] has a protein stability index [1] of 4.22 ± 0.22 and a protein stability index [2] of 4.31 ± 0.2.
TLEITLKDIVQTVRSRLEEAGIKV [TENT5C] gave a protein stability index [1] of 2.02 ± 0.35 and a protein stability index [2] of 2.18 ± 0.35.
For TLKQQHQQAVEQIAKAEETHSSLS [CCDC89], the protein stability index [1] was 5.07 ± 0.21 and the protein stability index [2] was 5.09 ± 0.14.
For TLRLEKLGHPALSQEEGKSALEDQ [PPFIA4], the protein stability index [1] was 5.38 ± 0.19 and the protein stability index [2] was 5.14 ± 0.21.
Sequence TLVDEGDLYNWEVAIFGPPNTYYE [CDC34] has a protein stability index [1] of 2.33 ± 0.38 and a protein stability index [2] of 2.8 ± 0.26.
TMGLAGRARVKEKFSPEAFTEQLY [ALG2] showed a protein stability index [1] of 2.94 ± 0.26 and a protein stability index [2] of 2.96 ± 0.13.
Work on TMLTVIEQPVPPTPATPEDPAPLW [EMID1] yielded a protein stability index [1] of 3.76 ± 0.28 and a protein stability index [2] of 3.77 ± 0.23.
In the case of TNNKVYAAKIIPHSRVAKPHQREK [PLK2], the protein stability index [1] is reported as 3.71 ± 0.2 and the protein stability index [2] is reported as 4.08 ± 0.57.
Work on TPASQSPKKPPAKDPLADLNIKDF [SNAP91] yielded a protein stability index [1] of 5.06 ± 0.092 and a protein stability index [2] of 4.87 ± 0.25.
Work on TPKCSSPRGQEGSRQDKPLSPAGS [YJU2B] yielded a protein stability index [1] of 5 ± 0.23 and a protein stability index [2] of 5.21 ± 0.23.
TPYKPPAGRAAAPELSYRVCVGSD [MYORG] showed a protein stability index [1] of 3.94 ± 0.24 and a protein stability index [2] of 4.13 ± 0.27.
TQHHFAFQNAERAFKAAALIQRWY [PPEF2] showed a protein stability index [1] of 3.09 ± 0.14 and a protein stability index [2] of 3.08 ± 0.18.
Sequence TQIKGLKNKPKKMGHIKPDLIDVD [PHTF1] has a protein stability index [1] of 4.42 ± 0.16 and a protein stability index [2] of 4.34 ± 0.26.
Work on TQRQFTILNFNDLMSSAVPMTPED [AASDHPPT] yielded a protein stability index [1] of 3.74 ± 0.14 and a protein stability index [2] of 3.38 ± 0.35.
For TQRRTSMGGTQQQFVEGVRMEEIV [CTNNB1], the protein stability index [1] was 4.05 ± 0.47 and the protein stability index [2] was 4.26 ± 0.37.
Work on TRRKKGKKDKDISKEKDTQNQNIT [KMT2E] yielded a protein stability index [1] of 4.75 ± 0.12 and a protein stability index [2] of 5.07 ± 0.1.
For TSFPGRGSIPEFFHIMKRKFTNKE [AASDHPPT], the protein stability index [1] was 3.179 ± 0.024 and the protein stability index [2] was 3.21 ± 0.72.
In the case of TSPLTAEKLCIYTDNSIKPQELLE [CCND2], the protein stability index [1] is reported as 4.05 ± 0.23 and the protein stability index [2] is reported as 4.08 ± 0.27.
For TSSCPNVSERSFDNVRSLKVESGA [CRYBA1], the protein stability index [1] was 5 ± 0.44 and the protein stability index [2] was 4.63 ± 0.2.
For TSSPAIWKFPVPVLKTSRSTPLSP [KLHL13], the protein stability index [1] was 3.19 ± 0.21 and the protein stability index [2] was 3.32 ± 0.086.
Work on TTYLKTIEVFDPDANTWRLYGGMN [KLHL20] yielded a protein stability index [1] of 2.34 ± 0.23 and a protein stability index [2] of 2.26 ± 0.042.
TWTKHAEGGIFTSPNYPSKYPPDR [NETO1] showed a protein stability index [1] of 3.94 ± 0.19 and a protein stability index [2] of 3.85 ± 0.065.
Sequence TYKCTKQLLSERFGRGSRTVDLEL [ARFIP2] has a protein stability index [1] of 2.43 ± 0.32 and a protein stability index [2] of 2.33 ± 0.18.
With TYMSADDLRINLWNFEITNQSFNI [PPP2R2B] the protein stability index [1] was 2.43 ± 0.66 and the protein stability index [2] was 2.53 ± 0.3.
In the case of VAERGTTQGCHPAWEPRSESQASR [ZNF8], the protein stability index [1] is reported as 4.48 ± 0.22 and the protein stability index [2] is reported as 4.6 ± 0.2.
With VAPADVRRLLSYCKGRDHGVLDAL [ZSWIM9] the protein stability index [1] was 2.46 ± 0.28 and the protein stability index [2] was 2.68 ± 0.46.
Work on VAPATWSAGVPPSAPLQGAVPPTS [SNAP91] yielded a protein stability index [1] of 4.38 ± 0.25 and a protein stability index [2] of 4.39 ± 0.29.
In the case of VAQGPFDSFVVQYEDTNGQPQALL [TNXB], the protein stability index [1] is reported as 3.43 ± 0.44 and the protein stability index [2] is reported as 3.16 ± 0.46.
Sequence VARCEVMAAMFNGNYMEAKSVLIP [RHOBTB3] has a protein stability index [1] of 2.16 ± 0.29 and a protein stability index [2] of 2.24 ± 0.17.
In the case of VDDFRLKYENELALRQSVEADING [KRT13], the protein stability index [1] is reported as 4.67 ± 0.15 and the protein stability index [2] is reported as 4.62 ± 0.2.
VDFLEPDSGTCPEVDEEGFTVRPD [FCHO1] gave a protein stability index [1] of 5.45 ± 0.086 and a protein stability index [2] of 5.43 ± 0.1.
Sequence VDIGMMKEFILTDEEVQRKREMIL [VDR] has a protein stability index [1] of 3.24 ± 0.19 and a protein stability index [2] of 3.24 ± 0.19.
VEKNEHCIENNIDLQVNRNFSLAT [R3HDM1] gave a protein stability index [1] of 4 ± 0.23 and a protein stability index [2] of 3.93 ± 0.31.
Work on VELYRIKFKESFAEMNRGSNEWKT [COX4I1] yielded a protein stability index [1] of 2.23 ± 0.29 and a protein stability index [2] of 2.07 ± 0.45.
Work on VERDNMEEDNVEESEEEGPWEPPV [HDAC6] yielded a protein stability index [1] of 5.58 ± 0.19 and a protein stability index [2] of 5.25 ± 0.21.
With VFAPVYFPEELHRKAALEQDLAFW [HMOX1] the protein stability index [1] was 2.14 ± 0.43 and the protein stability index [2] was 2.4 ± 0.38.
VFEKAGVSISVVHGNLSEEAAKQM [CPOX] gave a protein stability index [1] of 3.72 ± 0.15 and a protein stability index [2] of 3.65 ± 0.4.
With VFIIRKSLLDELMEVQHFRTIYHM [SOAT2] the protein stability index [1] was 2.85 ± 0.61 and the protein stability index [2] was 2.58 ± 0.46.
Sequence VFLVDICLLTYGMTSSSAYYYTKV [PKD2L1] has a protein stability index [1] of 2.98 ± 0.2 and a protein stability index [2] of 2.84 ± 0.58.
In the case of VGCKGSKAGIEQEGYWLPGDEISI [ZMYND11], the protein stability index [1] is reported as 3.18 ± 0.32 and the protein stability index [2] is reported as 3.13 ± 0.31.
For VGFRLCNSTGGDCFYRGYTSGVAA [SCNN1D], the protein stability index [1] was 2.01 ± 0.58 and the protein stability index [2] was 1.94 ± 0.54.
VGNYRLKEYEKALKYVRGLLQTEP [FIS1] gave a protein stability index [1] of 2.19 ± 0.22 and a protein stability index [2] of 2.5 ± 0.32.
Sequence VGSLPVIVVGRLKVALEPQLWELG [LPCAT4] has a protein stability index [1] of 2.74 ± 0.036 and a protein stability index [2] of 2.88 ± 0.6.
VGYGDMHPVTIGGKIVGSLCAIAG [KCNA3] gave a protein stability index [1] of 2.67 ± 0.11 and a protein stability index [2] of 2.26 ± 0.35.
VHTGCHKKLGPEARRPRTRWGKN gave a protein stability index (treatment: DMSO, c terminus: native) of 2.8 ± 0.5 and a protein stability index (treatment: MLN4924 1 uM, 8 h, c terminus: native) of 3.08 ± 0.69.

Source: the supplement of paper PMC10567573
